Assay results taken from paper PMC6363454 (The Journal of Cell Biology, 2019).
Like-named read-outs stand apart in the source and are kept apart here.

B1: Dam1C/DASH heterodecamer (recombinant) (complex, S. cerevisiae)
chain 1: MSEDKAKLGTTRSATEYRLSIGSAPTSRRSSMGESSSLMKFADQEGLTSSVGEYNENTIQQLLLPKIRELSDSIITLDSNFTRLNFIHESLADLNESLGSLLYGIMSNSWCVEFSQAPHDIQDDLIAIKQLKSLEDEKNNLVMELSNMERGIKRKKDEQGENDLAKASQNKQFNQPLFPSSQVRKYRSYDNRDKRKPSKIGNNLQVENEEDYEDDTSSEASFVLNPTNIGMSKSSQGHVTKTTRLNNNTNSKLRRKSILHTIRNSIASGADLPIENDNVVNLGDLHPNNRISLGSGAARVVNGPVTKNRNSMFSGRAERKPTESRHSVAKKTEKKINTRPPFR
chain 2: MMASTSNDEEKLISTTDKYFIEQRNIVLQEINETMNSILNGLNGLNISLESSIAVGREFQSVSDLWKTLYDGLESLSDEAPIDEQPTLSQSKTK
chain 3: MDSIDEQIAIKRKELQSLQKITSLTDGLKIQLTELNEQIKEMGMNADSVAQLMNNWDSIINNISQASLGLLQYAEGDYEIGPWKDSKKKESEQSNETGLEAQENDKNDEDNDEDEDLVPLPETMVRIRVDGNE
chain 4: MEHNLSPLQQEVLDKYKQLSLDLKALDETIKELNYSQHRQQHSQQETVSPDEILQEMRDIEVKIGLVGTLLKGSVYSLILQRKQEQESLGSNSK
chain 5: MENPHEQVQANILSRIIGNVKRLNESVAILNQELVTINNRNKNLEIMGAICDNYHSSVQFNLEATNNKKPPL
chain 6: MSEQSQLDDSTIDKLIPQIFNEMRSNLNNTTNKFPKSTGGGASDNISANSNSIRSFNSITTQSLLKESESLDKITAMIKNVTAALKNNLPVYVNQVHEVCKSTNSILDSWINIHSQAGYIHKLMSDQTYLKLINDRLHNENVNTNDEDGSTLHNVIALKKKEILDLRQKLENRKGEKDAAPAKPPNQGLNPRYGVQSGRRPVPSAGISNNGRVRKTHVPASKRPSGIPRVTNRWTKPTASSSRKMFR
chain 7: MDSASKEETLEKLDQEITVNLQKIDSNLSFCFHKITQDIIPHVATYSEICERIMDSTEWLGTMFQETGLVNLQANAAAPVGNAPVKSLVSNNVGIFPTSAEEASRQSQTDNGPNEADSAVHVNRDVHSMFNNDSIDDFHTANITSTGQILKLPDSSDEDTGSEAVPSREQTDLTGEGHGGADDEQDESTIQRQSRKRKISLLLQQQYGSSSSMVPSPIVPNKMRKQLAHEEHINNDGDNDDENSNNIESSPLKQGHHHPKGQADDNNEGPDEEESTKEVPKPGTIIHFSTNR
chain 8: MTDALEQSVLALEGTVSVLKDSVESLKCANEPSTNLASTMLQTKRVFRLVPEYDVERSKLDLIEEVEPLVRTLGDKLRKSMGRMQRELDTLQQTYELNDLRLKKNISMDDDDALNSPDMGQEYEGRDADDVVMMASSTNEELEELKKLKEKKKQLENKLEILKQK
chain 9: MGESLDRCIDDINRAVDSMSTLYFKPPGIFHNAILQGASNKASIRKDITRLIKDCNHDEAYLLFKVNPEKQSVSRRDGKEGVFDYVIKRDTDMKRNRRLGRPGEKPIIHVPKEVYLNKDRLDLNNKRRRTATTSGGGLNGFIFDTDLIGSSVISNSSSGTFKALSAVFKDDPQIQRLLYALENGSVLMEEESNNQRRKTIFVEDFPTDLILKVMAEVTDLWPLTEFKQDYDQLYHNYEQLSSKLRFIKKEVLLQDDRLKTMSQYHPSSSHDVAKIIRKEKDEIRRLEMEIANLQE
chain 10: MNANKQRQYNQLAHELRELQTNLQETTKQLDIMSKQCNENLVGQLGKVHGSWLIGSYIYYMEQMLGKTQ
B2: Dam1C/DASH outer kinetochore complex in yeast cells (in vivo) (complex)
chain 1: B1 chain 1
chain 2: B1 chain 2
chain 3: B1 chain 3
chain 4: B1 chain 4
chain 5: B1 chain 5
chain 6: B1 chain 6
chain 7: B1 chain 7
chain 8: B1 chain 8
chain 9: B1 chain 9
chain 10: B1 chain 10

What was measured:
cryo-EM structure [1] = molecular target: the molecule itself; assay: cryo-EM structure
cryo-EM structure [2] = molecular target: the molecule itself; assay: cryo-EM structure; remark: listed apart in the source

Protein	stoichiometry N (cryo-EM structure [1])	stoichiometry N (cryo-EM structure [2])
B1	17	
B2		17
